*1 amine or outer side, *2 acyl side, *3 side chain or, on linkers, in order; H or OH if unused. Bridges are numbered along the chain shown (N, C = ends). Where no end group is shown, it is not given here. Side-chain parts run from the residue outwards. [ ]: non-standard residue; d: D form. The star is where a group is joined. Isobutyryl(2-imidazol-4-yl) = CC(C)(C(=O)*)c1c[nH]cn1; PEG40kDa = 40 kDa polyethylene glycol attached; γGlu = O=C(O)[C@H](CCC(=O)[*:2])N[*:1]; Palmitoyl = CCCCCCCCCCCCCCCC(=O)*; Lauroyl = CCCCCCCCCCCC(=O)*; Aib = CC(C)(N)C(=O)O
B1: mt-218 (SEQ ID NO: 20) (peptide)
peptide: YXEGTFISDYSIAMDKIHQQDFVNWLLAQKGKKNWLKHNITQ
modifications: not fully specified; AIB at position 2; C-terminal amide; Glu16-Lys20 lactam in some Table 3 peptides, absent in others (which ones is not stated)
B2: mt-228 (SEQ ID NO: 26) (peptide)
peptide: Y[Aib]PGTFISDYSIAMDKIHQQDFVC(PEG40kDa)WLLAQKGKKNWLKHNITQ-NH2
modifications: not fully specified
B3: mt-220 (SEQ ID NO: 22) (peptide)
peptide: Y[Aib]EGTFISDYSIAMDKIHQQDFVCWLLAQKGKKNWLKHNITQ-NH2
modifications: not fully specified
B4: mt-217 (SEQ ID NO: 19) (peptide)
peptide: Y[Aib]EGTFISDYSIAMDKIHQQDFVNWLLAQKGKKNWLKHNITQ-NH2
modifications: not fully specified
B5: mt-227 (SEQ ID NO: 25) (peptide)
peptide: Y[Aib]QGTFTSDYSIYLDEQAAKEFVNWLLAGGPSSGAPPPSK-NH2
modifications: not fully specified
B6: mt-219 (SEQ ID NO: 21) (peptide)
peptide: Y[Aib]PGTFISDYSIAMDKIHQQDFVNWLLAQKGKKNWLKHNITQ-NH2
modifications: not fully specified
B7: mt-226 (SEQ ID NO: 24) (peptide)
peptide: Y[Aib]PGTFISDYSIAMDKIHQQDFVCWLLAQKGKKNWLKHNITQ-NH2
modifications: not fully specified
B8: mt-225 (SEQ ID NO: 23) (peptide)
peptide: Y[Aib]QGTFTSDYSIYLDEQAAKEFVNWLLAGGPSSGAPPPSK([Ala-Cys(PEG 40 kDa)-Ac])-NH2
modifications: lactam 16-20
B9: Analog No. 53: Aib2, K10acyl, Aib16, A18, V27, K28, G29 + CEX (SEQ ID NO: 35) (peptide)
peptide: H[Aib]QGTFTSDK(Palmitoyl)SKYLD[Aib]RAAQDFVQWLVKGGPSSGAPPPS-NH2
B10: Analog No. 29: dSer2, K10acyl, E16, A18, L27, D28, G29 + CEX (SEQ ID NO: 27) (peptide)
peptide: H[dS]QGTFTSDKSKYLDERAAQDFVQWLLDGGPSSGAPPPS-NH2
modifications: not fully specified (residue 10)
B11: Analog No. 44: DMIA1, dSer2, K10acyl, E16, A18, L27, D28 (SEQ ID NO: 32) (peptide)
peptide: [Isobutyryl(2-imidazol-4-yl)][dS]QGTFTSDKSKYLDERAAQDFVQWLLDT-NH2
modifications: not fully specified (residue 10)
B12: Analog No. 34: Aib2, K10acyl, E16, A18, L27, D28, GRG29-31 (SEQ ID NO: 29) (peptide)
peptide: H[Aib]QGTFTSDKSKYLDERAAQDFVQWLLDGRG-NH2
modifications: not fully specified (residue 10)
B13: Analog No. 64: Aib2, E3, K10acyl, E16, Aib20, E21, L27, D28 (SEQ ID NO: 40) (peptide)
peptide: H[Aib]EGTFTSDKSKYLDERRA[Aib]EFVQWLLDT-NH2
modifications: not fully specified (residue 10)
B14: Analog No. 54: Aib2, K10acyl, Aib16, A18, K27, D28, G29 + CEX (SEQ ID NO: 36) (peptide)
peptide: H[Aib]QGTFTSDKSKYLD[Aib]RAAQDFVQWLKDGGPSSGAPPPS-NH2
modifications: not fully specified (residue 10)
B15: Analog No. 49: Aib2, K10acyl, Aib16, A10, D28, G29 + CEX (SEQ ID NO: 33) (peptide)
peptide: H[Aib]QGTFTSDKSKYLD[Aib]RAAQDFVQWLMDGGPSSGAPPPS-NH2
modifications: not fully specified (residue 10)
B16: Analog No. 65: Aib2, E3, K10acyl, E16, Aib20, L27, D28, G29 + CEX (SEQ ID NO: 41) (peptide)
peptide: H[Aib]EGTFTSDK(Palmitoyl)SKYLDERRA[Aib]DFVQWLLDGGPSSGAPPPS-NH2
B17: Analog No. 36: dSer2, K10acyl, E16, Aib20, E21, L27, D28 (SEQ ID NO: 30) (peptide)
peptide: H[dS]QGTFTSDKSKYLDERRA[Aib]EFVQWLLDT-NH2
modifications: not fully specified (residue 10)
B18: peptide of SEQ ID NO: 173 (peptide)
peptide: Y[Aib]QGTFTSDYSIYLDKQAA[Aib]EFVC(40K‑TE PEG)WLLAGGPSSGAPPPSK(Lauroyl)-NH2
B19: peptide of SEQ ID NO: 172 (peptide)
peptide: Y[Aib]QGTFTSDYSIYLDKQAA[Aib]EFVC(40K‑TE PEG)WLLAGGPSSGAPPPSK(C8)-NH2
B20: peptide of SEQ ID NO: 81 (peptide)
peptide: Y[Aib]QGTFTSDK([γGlu-γGlu-Palmitoyl])SIYLDKQAA[Aib]EFVNWLLAGGPSSGAPPPS-NH2
modifications: N-terminus assumed
SMILES: CCCCCCCCCCCCCCCC(=O)N[C@@H](CCC(=O)N[C@@H](CCC(=O)NCCCC[C@H](NC(=O)[C@H](CC(=O)O)NC(=O)[C@H](CO)NC(=O)[C@@H](NC(=O)[C@H](Cc1ccccc1)NC(=O)[C@@H](NC(=O)CNC(=O)[C@H](CCC(N)=O)NC(=O)C(C)(C)NC(=O)[C@@H](N)Cc1ccc(O)cc1)[C@@H](C)O)[C@@H](C)O)C(=O)N[C@@H](CO)C(=O)N[C@H](C(=O)N[C@@H](Cc1ccc(O)cc1)C(=O)N[C@@H](CC(C)C)C(=O)N[C@@H](CC(=O)O)C(=O)N[C@@H](CCCCN)C(=O)N[C@@H](CCC(N)=O)C(=O)N[C@@H](C)C(=O)N[C@@H](C)C(=O)NC(C)(C)C(=O)N[C@@H](CCC(=O)O)C(=O)N[C@@H](Cc1ccccc1)C(=O)N[C@H](C(=O)N[C@@H](CC(N)=O)C(=O)N[C@@H](Cc1c[nH]c2ccccc12)C(=O)N[C@@H](CC(C)C)C(=O)N[C@@H](CC(C)C)C(=O)N[C@@H](C)C(=O)NCC(=O)NCC(=O)N1CCC[C@H]1C(=O)N[C@@H](CO)C(=O)N[C@@H](CO)C(=O)NCC(=O)N[C@@H](C)C(=O)N1CCC[C@H]1C(=O)N1CCC[C@H]1C(=O)N1CCC[C@H]1C(=O)N[C@@H](CO)C(N)=O)C(C)C)[C@@H](C)CC)C(=O)O)C(=O)O
B21: peptide of SEQ ID NO: 175 (peptide)
peptide: Y[Aib]EGTFTSDYSIYLDKQAA[Aib]EFVNWLLAGGPSSGAPPPSC(PEG 40 kDa)-NH2

target: T1, glucagon receptor (UniProt P47871 26-477, limits assumed); test: cell-based or functional assay
T1 sequence (P47871 26-477 limits assumed): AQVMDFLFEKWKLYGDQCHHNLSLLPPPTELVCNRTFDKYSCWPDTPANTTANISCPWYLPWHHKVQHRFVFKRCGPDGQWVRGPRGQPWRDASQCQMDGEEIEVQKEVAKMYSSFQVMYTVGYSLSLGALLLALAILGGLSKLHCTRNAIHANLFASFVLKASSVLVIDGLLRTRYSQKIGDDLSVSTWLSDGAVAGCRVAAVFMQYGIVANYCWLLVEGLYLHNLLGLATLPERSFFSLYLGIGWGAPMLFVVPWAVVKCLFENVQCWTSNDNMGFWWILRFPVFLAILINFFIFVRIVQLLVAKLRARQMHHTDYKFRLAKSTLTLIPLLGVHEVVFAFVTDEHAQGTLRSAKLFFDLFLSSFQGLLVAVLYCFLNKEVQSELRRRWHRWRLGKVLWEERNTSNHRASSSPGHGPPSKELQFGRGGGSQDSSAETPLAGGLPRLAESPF

Row | Binder | EC50 (cAMP reporter) | relative activity (to native hormone)
1 | B1 | 16300 pM | 0.7%
2 | B2 | 5360 pM | –
3 | B3 | 9670 pM | 1.18%
4 | B4 | 13900 pM | 0.82%
5 | B5 | 4240 pM | –
6 | B6 | 17600 pM | 0.65%
7 | B7 | 3460 pM | –
8 | B8 | 2710 pM | –

target: T2, GLP-1 receptor (UniProt P43220 24-463, limits assumed); test: cell-based or functional assay

Row | Binder | EC50 (cAMP reporter) | relative activity (to native hormone)
9 | B1 | 338 pM | 7.4%
10 | B2 | 146 pM | –
11 | B3 | 180 pM | 13.9%
12 | B4 | 222 pM | 11.3%
13 | B5 | 80 pM | –
14 | B6 | 151 pM | 16.6%
15 | B7 | 97 pM | –
16 | B8 | 98 pM | –

target: T3, GIP receptor (UniProt P48546 22-466, limits assumed); test: cell-based or functional assay
T3 sequence (looked up): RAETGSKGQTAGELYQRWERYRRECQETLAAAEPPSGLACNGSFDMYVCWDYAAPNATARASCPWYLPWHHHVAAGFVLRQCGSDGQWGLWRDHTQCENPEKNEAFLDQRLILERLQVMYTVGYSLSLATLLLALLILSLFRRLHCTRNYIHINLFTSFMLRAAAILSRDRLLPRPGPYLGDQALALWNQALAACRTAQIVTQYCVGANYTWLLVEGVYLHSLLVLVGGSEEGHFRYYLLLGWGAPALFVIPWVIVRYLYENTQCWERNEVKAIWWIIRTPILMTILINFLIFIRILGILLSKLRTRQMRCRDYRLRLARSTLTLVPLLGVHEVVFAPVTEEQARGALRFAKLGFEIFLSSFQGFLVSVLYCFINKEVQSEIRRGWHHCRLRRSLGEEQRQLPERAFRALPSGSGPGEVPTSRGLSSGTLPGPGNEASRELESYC

Row | Binder | EC50 (cAMP reporter) | relative activity (to native hormone)
17 | B1 | 14300 pM | 0.13%
18 | B2 | 2270 pM | –
19 | B3 | 10300 pM | 0.19%
20 | B4 | 9570 pM | 0.2%
21 | B5 | 1320 pM | –
22 | B6 | 6160 pM | 0.31%
23 | B7 | 1470 pM | –
24 | B8 | 1900 pM | –

target: T1, glucagon receptor; test: cell-based or functional assay; remark: another data set of the same source

Row | Binder | EC50 (cAMP reporter)
25 | B9 | 11 pM
26 | B10 | 3 pM
27 | B11 | 4 pM
28 | B12 | 7 pM
29 | B13 | 42 pM
30 | B14 | 8 pM
31 | B15 | 5 pM
32 | B16 | 221 pM
33 | B17 | 8 pM

target: T2, GLP-1 receptor; test: cell-based or functional assay; remark: another data set of the same source

Row | Binder | EC50 (cAMP reporter)
34 | B9 | 5 pM
35 | B10 | 2 pM
36 | B11 | 3 pM
37 | B12 | 3 pM
38 | B13 | 6 pM
39 | B14 | 4 pM
40 | B15 | 4 pM
41 | B16 | 6 pM
42 | B17 | 3.1 pM

target: T3, GIP receptor; test: cell-based or functional assay; remark: another data set of the same source

Row | Binder | EC50 (cAMP reporter)
43 | B9 | 73 pM
44 | B10 | 85 pM
45 | B11 | 103 pM
46 | B12 | 64 pM
47 | B13 | 24 pM
48 | B14 | 171 pM
49 | B15 | 248 pM
50 | B16 | 13 pM
51 | B17 | 250 pM

target: T1, glucagon receptor; test: cell-based or functional assay; remark: another data set of the same source

Row | Binder | EC50 (cAMP reporter)
52 | B18 | 190 pM
53 | B19 | 3060 pM
54 | B20 | 73 pM
55 | B21 | 620 pM

target: T2, GLP-1 receptor; test: cell-based or functional assay; remark: another data set of the same source
Target sequence in this assay (P43220 24-463 limits assumed): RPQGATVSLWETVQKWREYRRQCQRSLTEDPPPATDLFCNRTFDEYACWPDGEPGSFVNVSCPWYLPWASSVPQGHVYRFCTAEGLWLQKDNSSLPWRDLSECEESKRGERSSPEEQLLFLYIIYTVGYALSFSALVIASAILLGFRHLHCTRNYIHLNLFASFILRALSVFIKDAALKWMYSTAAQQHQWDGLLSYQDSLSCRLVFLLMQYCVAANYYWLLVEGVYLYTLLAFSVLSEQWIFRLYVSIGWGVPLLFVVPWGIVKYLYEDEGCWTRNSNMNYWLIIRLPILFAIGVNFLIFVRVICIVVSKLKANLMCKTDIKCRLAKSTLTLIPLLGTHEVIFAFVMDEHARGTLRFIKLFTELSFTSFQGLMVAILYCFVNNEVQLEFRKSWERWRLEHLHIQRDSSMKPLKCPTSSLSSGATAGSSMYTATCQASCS

Row | Binder | EC50 (cAMP reporter)
56 | B18 | 11 pM
57 | B19 | 108 pM
58 | B20 | 8 pM
59 | B21 | 66 pM

target: T3, GIP receptor; test: cell-based or functional assay; remark: another data set of the same source

Row | Binder | EC50 (cAMP reporter)
60 | B18 | 89 pM
61 | B19 | 487 pM
62 | B20 | 5 pM
63 | B21 | 100 pM

Reference: patent US20120238493A1 (INDIANA UNIVERSITY RESEARCH AND TECHNOLOGY, published 2012)
